What was measured:
HT1080.hPSMA tumor = test: MMAE release from conjugates in HT1080.hPSMA tumor model (comparison and timepoint study); type: in vivo, mice; settings: 250 nmol/kg; for MMAE release compared with Conjugate 1: 24 h after intravenous injection, HT1080.hPSMA tumor model
Procedure: (§1) HT1080.hPSMA tumor cells were grown to 90% confluence and detached with Trypsin-EDTA 0.05%. Cells were resuspended in Hank's Balanced Salt Solution (HBSS) at a density of 5×10^7 cells/mL. 100 μL of HT1080.hPSMA cells (5×10^6 cells) were injected subcutaneously in the right flank of female athymic Balb/c AnNRj-Foxn1 mice (6 to 8 weeks of age). Tumors were grown until ˜250 mm^3 volume (average).
Comparison study: 0.1 mL of 50 μM solutions (2% DMSO, PBS, 250 nmol/kg) of the four conjugates (1 to 4) were injected intravenously. The animals were sacrificed in groups of 3 after 24 h, and blood and the following organs were extracted: HT1080.hPSMA tumor, heart, lungs, liver, kidney, spleen, stomach. The blood fraction was centrifuged, and the plasma (supernatant) was extracted. The organs were stored at −80° C. before being used for further analysis.
Timepoint study: 0.1 mL of a 50 μM solution (2% DMSO, PBS, 250 nmol/kg) of conjugate 1 was injected intravenously into the tail vein of the mice. The animals were sacrificed in groups of 3 after 6 h, 24 h, 48 h, and 72 h, and blood and the following organs were extracted: HT1080.hPSMA tumor, heart, lungs, liver, kidney, spleen, stomach. The blood fraction was centrifuged, and the plasma (supernatant) was extracted. The organs were stored at −80° C. before being used for further analysis.
Frozen plasma (50 μL) and mouse tissues (˜50 mg) were thawed, and 500 μL of PBS was added. Samples were kept on ice, and 50 μL solution of internal standard (d8-MMAE, 50 nM) was added. Samples were then homogenized at 4° C. with a tissue lyser for 2 minutes at 30 Hz for 4 cycles. After homogenization, samples were centrifuged (21'000 g, 10 min). Subsequently, 100 μL of supernatants were collected and added to 900 μL of acetonitrile (ACN) to induce protein precipitation. After centrifugation (21'000 g, 10 min), 800 μL of supernatants were collected and dried at room temperature with a vacuum centrifuge. Pellets were then resuspended in 20 μL of an aqueous solution containing 3% ACN and 0.1% of HCOOH, and 5 μL were injected into the UHPLC-MS system. Chromatographic separation was carried out on a Hypersil Gold C18 column (100 mm×2.1 mm, 1.9 μm particle size, 175 Å pore size) column temperature was set at 50° C. and a flow rate of 700 μL/min with a gradient program from 95% A (water+0.1% HCOOH), 5% B (ACN+0.1% HCOOH) to 35% of A in 2.5 minutes, from 35% A to 5% A in 0.4 minutes and 5% A was kept for 1.3 minutes before reconditioning at 95% A. The LC system was coupled to a Q-Exactive mass spectrometer via an Ion Max HESI Source. Ionization was carried out with a spray voltage of 3.5 kV; Sheath gas 40 units; Aux gas 10 units; capillary temperature of 380° C.; Aux gas temperature 450° C.; S-lens RF level 60. The mass spectrometer was operating in targeted Single Ion Monitoring mode (t-SIM) following the molecular ion 718.5113 m/z. The detector was working in positive ionization mode with the following parameters: resolution 70'000 (FWHM at 200 m/z); AGC target of 5×10^4; maximum injection time of 200 ms; isolation window 14 m/z; isolation offset 5 m/z. Peak areas of analytes and internal standards were integrated, and corresponding ratios were calculated. The ratios were then transformed into pmol/g of wet tissue using single-concentration external calibration points and corrected by the total weight of the sample analysed. The percentage of injected dose per gram (% ID/g) was finally calculated by normalizing the value based on the total dose injected into the mouse. Data analysis was performed with Skyline v22.2.0.351.

HT1080.hPSMA xenografts [1] = test: Comparative therapy experiment in mice bearing HT1080.hPSMA xenografts (tumor volume); type: in vivo; settings: 250 nmol/kg i.v. on days 8, 10, 12 after tumor implantation, n=5
Procedure: as §1, with “a” for “a density of”, “cells/mL density.” for “cells/mL.”, “volumes of […].” for “˜250 mm^3 volume (average).”
Tumor-bearing mice were randomized into groups of 5 and 0.1 mL of 50 μM solutions (2% DMSO, PBS, 250 nmol/kg) of the four conjugates (1 to 4), or saline solution (0.9% NaCl) was injected intravenously three times with 1-day break in between (days 8, 10, and 12 after tumor implantation).

LNCaP tumor (PSMA+) = test: MMAE release from conjugates in LNCaP tumor model (biodistribution by LC-MS); type: in vivo, mice; settings: 24 h after intravenous injection, LNCaP tumor model, n=3
Procedure: LNCaP tumor cells were grown to 80% confluence and detached with Trypsin-EDTA 0.05%. Cells were resuspended in PBS at a density of 30×10^6 cells/mL. The cell suspension was further diluted 1:1 with Matrigel. 200 μL of LNCaP cells (3×10^6 cells) were injected subcutaneously in the left flank of female athymic Balb/c AnNRj-Foxn1 mice (6 to 8 weeks of age). Tumors were grown until volumes of 200-300 mm^3 were observed.
0.1 ml of 50 μM solutions (2% DMSO, PBS) of the four Conjugates (1-4) were injected intravenously into 4 of the mice (1 mouse per SMDC). The animals were sacrificed after 24 h and the following organs were extracted: blood, LNCaP tumor (PSMA+), heart, lungs, liver, kidney, spleen, stomach. The blood fraction was centrifuged, and the plasma (supernatant) was extracted. The organs were preserved at −80° C. before being used for further analysis.
Frozen plasma or mouse tissues (˜50 mg) were thawed and treated with 600 μL of an aqueous solution containing 95% acetonitrile (ACN), and 0.1% HCOOH were added to induce protein precipitation. 50 μL of a solution of d8-MMAE, 50 nM) was added as internal standard. Samples were then homogenized with a tissue lyser for 15 minutes at 30 Hz. After homogenization, samples were centrifuged (21'000 g for 10 minutes). The supernatant was collected and dried at room temperature with a rotary evaporator. Pellets were then resuspended in 1 mL of an aqueous solution containing 3% ACN and 0.1% of TFA and subsequently purified on Oasis HLB SPE columns. Eluates were dried under vacuum at room temperature. […] Peak areas of analytes and internal standards were integrated, and corresponding ratios were calculated. The ratios were then transformed into pmol/g of wet tissue using single-concentration external calibration points and corrected by the total weight of the sample analysed. The percentage of injected dose per gram (% ID/g) was finally calculated by normalizing the value based on the total dose injected into the mouse. […]

HT1080.hPSMA xenografts [2] = test: Payload study and combination therapy with L19-IL2 in HT1080.hPSMA tumor model (tumor volume); type: in vivo, mice; settings: conjugates 250 nmol/kg i.v. days 7 and 11; L19-IL2 2.5 mg/kg i.v. days 8, 10, 12; n=3/4
Procedure: as §1, with “a” for “a density of”, “cells/mL density.” for “cells/mL.”, “an average volumes of ˜100” for “˜250”, “was reached.” for “volume (average).”
Tumor-bearing mice were randomized into groups of 3 or 4 animals. A 50 μM solution (2% DMSO, 250 nmol/kg; 100 μL) of Conjugate 1, 5, or 6, L19-IL2 (SEQ ID NO: 10, 0.5 mg/mL, 2.5 mg/kg; 100 μL), PBS (100 μL), or L19-IL2 buffer (NaH2PO4 6.7 mM, NaCl 20 mM, KCl 1.8 mM, Mannitol 133 mM, Tween80 0.1% v/v, Glycerol 1% w/v; 100 μL) was injected intravenously (i.e., systemic administration through tail-vein) with the following schedule:
Groups of Conjugates 1, 5, or 6: two separate injections with a 3-day break in between (day 7 and day 11 after tumor implantation).
L19-IL2 group: three separate injections with a 1-day break in between (day 8, day 10, and day 12 after tumor implantation).
Combination therapy groups: two separate injections of Conjugate 1, 5, or 6 with a 3-day break in between (day 7 and day 11 after tumor implantation) and three separate injections of L19-IL2 with a 1-day break in between (day 8, day 10, and day 12 after tumor implantation). […]

Row | Compound | MMAE release compared with Conjugate 1 (HT1080.hPSMA tumor) | MMAE release in tumor (HT1080.hPSMA tumor; 24 hours after intravenous injection, HT1080.hPSMA tumor, n=3) | Therapeutic efficacy (tumor volume change) (HT1080.hPSMA xenografts [1]) | MMAE release, experiment repeated with three mice each (LNCaP tumor (PSMA+)) | In vivo anti-tumor activity, monotherapy (tumor volume) (HT1080.hPSMA xenografts [2])
1 | CC[C@H](C)[C@@H]([C@@H](CC(=O)N1CCC[C@H]1[C@H](OC)[C@@H](C)C(=O)N[C@H](C)[C@@H](O)c1ccccc1)OC)N(C)C(=O)[C@@H](NC(=O)[C@H](C(C)C)N(C)C(=O)OCc1ccc(NC(=O)[C@H](CCCNC(N)=O)NC(=O)[C@@H](NC(=O)CCCCCN2C(=O)CC(SC[C@H](N)C(=O)NCCCCCC(=O)NC[C@H]3CC[C@H](C(=O)N[C@@H](Cc4ccc5ccccc5c4)C(=O)NCCCC[C@H](NC(=O)N[C@@H](CCC(=O)O)C(=O)O)C(=O)O)CC3)C2=O)C(C)C)cc1)C(C)C (stereo partly drawn) [Conjugate 2] | significantly lower or no release of MMAE | 1.7 % ID/g | tumor growth retardation but did not lead to shrinkage of the tumor mass | confirmed | 
2 | CC[C@H](C)[C@@H]([C@@H](CC(=O)N1CCC[C@H]1[C@H](OC)[C@@H](C)C(=O)N[C@H](C)[C@@H](O)c1ccccc1)OC)N(C)C(=O)[C@@H](NC(=O)[C@H](C(C)C)N(C)C(=O)OCCSSC[C@H](N)C(=O)NCCCCCC(=O)NC[C@H]1CC[C@H](C(=O)N[C@@H](Cc2ccc3ccccc3c2)C(=O)NCCCC[C@H](NC(=O)N[C@@H](CCC(=O)O)C(=O)O)C(=O)O)CC1)C(C)C [Conjugate 3] | significantly lower or no release of MMAE |  | didn't display any therapeutic efficacy |  | 
3 | CC[C@H](C)[C@@H]([C@@H](CC(=O)N1CCC[C@H]1[C@H](OC)[C@@H](C)C(=O)N[C@H](C)[C@@H](O)c1ccccc1)OC)N(C)C(=O)[C@@H](NC(=O)[C@H](C(C)C)N(C)C(=O)CCCCCN1C(=O)CC(SC[C@H](N)C(=O)NCCCCCC(=O)NC[C@H]2CC[C@H](C(=O)N[C@@H](Cc3ccc4ccccc4c3)C(=O)NCCCC[C@H](NC(=O)N[C@@H](CCC(=O)O)C(=O)O)C(=O)O)CC2)C1=O)C(C)C (stereo partly drawn) [Conjugate 4] | significantly lower or no release of MMAE |  | didn't display any therapeutic efficacy |  | 
4 | L19-IL2: Immunocytokine: L19-derived scFv (binds ED-B domain of fibronectin) linked to IL2, SEQ ID NO: 10 [Conjugate L19-IL2] |  |  |  |  | only a slight tumor growth retardation

— US12576154B2, “Conjugates of PSMA-binding moieties with cytotoxic agents” (PHILOCHEM AG, priority 2022, dated 2026)
